Reference: patent publication US20160222058A1

biological target: Angiotensin converting enzyme (ACE); assay: cell-based or functional assay

Row | IC50 (µg/ml), in vitro ACE inhibitory activity [µg/mL] | Substance
1 | 320 | Ovotransferrin hydrolysate prepared by pepsin, without reducing agent treatment
2 | 215 | Ovotransferrin hydrolysate prepared by thermolysin, without reducing agent treatment
3 | 10.7 | Ovotransferrin hydrolysate (thermolysin then pepsin) of ovotransferrin treated with dithiothreitol prior to hydrolysis
4 | 198 | Ovotransferrin hydrolysate prepared by thermolysin and pepsin in combination, without sonication or reducing agent treatment
5 | 9.2 | Ovotransferrin hydrolysate (thermolysin then pepsin) of ovotransferrin treated by sonication prior to hydrolysis
6 | 45.6 | Ovotransferrin hydrolysate (thermolysin then pepsin) of ovotransferrin treated with beta-mercaptoethanol prior to hydrolysis
